This is an account of results in paper doi:10.1101/2022.03.05.483071.

In the assay the target is KIF5A ΔExon27-GFP (human) (UniProt Q12840). The assay can be described thus: single-molecule TIRF microscopy, fluorescence intensity of moving spots.

In the case of “KIF5A ΔExon27-GFP (from UniProt Q12840 1-998) (natural protein)”, the percent of moving spots that are a single dimer stood at 25%.
